To fix the notation:
B1: TPR t1 (parent)
chain: GACCAAUCUGCCCUCAGAGCUCGAGAACAUCUUCGGAUGCAGAGGAGGCAGGCUUCGGUGGCGCGAUAGCGCCAACGUCCUCAACCUCCAAUGCAUCCCACCACAUGAUGAUGCCUGAAGAGCCUUGGUUUUUUG

21 variants from the RNAGym collection of RNA variant scans (doi:10.1073/pnas.2313332121) can be followed below.

In the data set the parent is B1. The experiment in a line: polymerase ribozyme fitness, log enrichment relative to wild type (log ratio); higher = more active; in vitro selection for triplet polymerase activity. The method, boiled down: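 Mutant libraries of each subunit of a heterodimeric triplet polymerase ribozyme were built by PCR and transcribed. Each library went through one round of in vitro selection in triplicate: annealing with biotinylated primer, partner subunit and triplets, frozen incubation at −7 °C, gel excision of extended constructs, streptavidin-bead capture and RT-PCR. Input and output libraries were Illumina-sequenced; only genotypes with ≥10 input reads and ≥1 read per output were kept. Fitness is log2(genotype enrichment/wild-type enrichment), using inverse-variance-weighted replicate averages.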
With GACCAAUCUGCCCUCAGAGCUCGAGAACAUCUUCGGUUGCACAGGAGGCAGGCUUCGGUGGCGCGAUAGCGCCAACGUCCUCAACCUCCAAUGCAUCCCACCACAUGAUGAUGCCUGAAGAGCCUUGGUUUUUUG, the “polymerase ribozyme fitness (log ratio)” value was -1.65. As to GACCAAUCUGCCCUCAGAGCUCGAGAACAUCUUCGGUUGCAGAGGAGGCACGCUUCGGUGGCGCGAUAGCGCCAACGUGCUCAACCUCCAAUGCAUCCCACCACAUGAUGAUGCCUGGAGAGCCUUGGUUUUUUG, the “polymerase ribozyme fitness (log ratio)” value is -3.37. Take GACCAAUCUGCCCUCAGAGCUCGAGAACAUCUUCGGUUGCAGAGGAGGCAGGCUUCGGUGGCGCGAUAGCGCGAACGUCCUCAACCUCCAAUGCAUCCCACCACAUGAUGAUGCCUGAAGAGCCUUGGUGUUUUG: the “polymerase ribozyme fitness (log ratio)” value is -1.38. GACCAAUCUGCCCUCAGAGCUCGAGAACAUCUUCGGUUGCAGAGGAGGCAGGCUUCGGUGGCUCGAUAGCGCCAACGUCCUCAACCUCCAAUGCAUCCCACCACCUGAUGAUGCCUGAAGAGCCUUGGUUUUUUG: the “polymerase ribozyme fitness (log ratio)” value is -5.31.

Take GACCAAUCUGCCCUCAGAGCUCGAGAACAUCUUCGGUUGCAGAGGAGGCAGGCUUCGGUAGCGCGAUAGCGCCAACGUCCUCAACCUCCAAUGCAUCCCACCACAUGAUGAUGCCUGAAGAGCCUUGGUUUUUUG: the “polymerase ribozyme fitness (log ratio)” value was -0.626. Turning to GACCAAUCUGCCCUCAGAGCUCGAGAACAUCUUCGGUUGCAGAGGAGGCAGGCUUCGGUGGCCCGAUAUCGCCAACGUCCUCAACCUCCAAUGCAUUCUACCACAUGAUUAUGCCUGAAGAGCCUUGGUUUUUUG, the “polymerase ribozyme fitness (log ratio)” value was -5.81. For the variant GACCAAUCUGCCCUCAGAGCUCGAGAACAUCUUCGGUUGCAGAGGAGGCAGGCUUCAGUGGCGCGAUAGCGCCAACGUCCUCAACCUCCAAUGCAUCCCACCACAUGAGGAUGCCUGAAGAGCCUUGGUUUUUUG, the “polymerase ribozyme fitness (log ratio)” value was -5.89. Regarding GACCAAUCUGCCCUCAGAGCUCGAGAACAUCUUCGGUUGCAGAAGAGGCAGGCUUCGGUGGCGCGAUAGCGCCAACGUCCUCAACCUCCAAUGCAUCCCACCACAUGAUGAUCCCUGAAGAGCCUUGGUAUUUUG, the “polymerase ribozyme fitness (log ratio)” value was -3.29. In the case of GACCAAUCUGCCCUCAGAGCUCGAGAACAUCUUCGGUUGCAGAGGAGGCAGGCUUCGGUGGCGCGAUAGCGCCAACGUCCUCAACCUUCAAUGCAUCCCACCACAUGAUGAUGCCUGAAGAGCCUUGGUUUUUUG, the “polymerase ribozyme fitness (log ratio)” value is -0.319. GACCAAUCUGCCCUCAGAGCUCGAGAACAUCUUCGGUUGCAGAGAAGGCAGGCUUCGGUGGCGCGAUAGCGGCAACGUCCUCAACCUCCAAUGCAUCCCACCACAUGAUGAUGCCUGAAGAGCCUUGGUUUUUUG: the “polymerase ribozyme fitness (log ratio)” value was -1.92. Consider GACCAAUCUGCCCUCAGAGCUCGAGAACAUCUUCGGUUGCAGAGGAGGCAGGCUUCGGUGGCGCGAUAGCGCCAACGUCCUCAACGUUCAAUGCAUCCCACCAUAAGAUGAUACCUGAAGAGCGUUAGUUUUUUG, for which the “polymerase ribozyme fitness (log ratio)” value is -4.82. GACCAAUCUGCCCUCAGAGCUCGAGAACAUCUUCGGUUGCAGAGGAGGCAGGCUUCGGUGGCGCGAUAGCGCCAACGUCCUCAACCUCCAAUGCAUCCCACCACAUGAUGAUGCCUGAAGAGUCUUGGUUUUUUG: the “polymerase ribozyme fitness (log ratio)” value was found to be 0.6.

Regarding GACCAAUCUGCCCUCAGAGCUCGAGAACAUCUUCGGUUGCAGAGGAGGCAGGCUUCGGUGGCGCGAUAGUGCCAACGUCCUCAACCUCCAAUGCAUCCCACCACAUGAUGAUGCCUGAAGAGCCUUGGUUUUUUG, the “polymerase ribozyme fitness (log ratio)” value is -1.07. Turning to GACCAAUCUGCCCUCAGAGCUCGAGAACAUCUUCGGUUGCAGAGGAGGCAGGCUUCGGUGGCGCGAUAGCGCCAACGUCCUCAACCUCCAAUGCAUCCCACCACAUGAUGAUGACUGAAGAGCUUUGGUUUUUUG, the “polymerase ribozyme fitness (log ratio)” value is -1.39. With GACCAAUCUGCCCUCAGAGCUCGAGAACAUCUUCGGUUGCAGAGGAUGCAGGCCUCGGUGGCGCGAUAGCGCCAACGGCCUCAAUCUCCAAUGCAUCCCACCACAUGAUGAUGCCUGAUGAGCCUUGGUUUUUUG, the “polymerase ribozyme fitness (log ratio)” value is -3.1. Regarding GACCAAUCUGCCCUCAGAGCUCGAGAACAUCUUCGGUUGCAGAGGAGGCAGGCUUCGGUGGCGCGAUAGCGCCAACGUCCUCAACCUCCAAUGCAUCCCAACACAUGAUGAUGCCUGAAAAGCCUUGGUUUUUUG, the “polymerase ribozyme fitness (log ratio)” value is -0.798. On to GACCAAUCUGCCCUCAGAGCUCGAGAACAUCUUCGGUUGCAGAAGAGGCAGGCUUCGGUGGCGCGAUAGCGCCAACGUCCUCAACCGCCAAUGCAUCCCACCACAUGAUGAUGCCUGAUGAGCCUUGCUUUUUUG, for which the “polymerase ribozyme fitness (log ratio)” value was -3.53. For GACCAAUCUGCCCUCAGAGCUCGAGAACAUCUUCGGUUGCAGAGGAGGCAGGCUUCGGUGGCGCGAUAGCGUCAACGUCCUCAACCUCCAAUGCAUCCCACCACAUGAUGAUGCCUGAAGAGCCUUGGUUUUUUG, the “polymerase ribozyme fitness (log ratio)” value is -1.56. Turning to GACCAAUCUGCCCUCAGAGCUCGAGAACAUCUUCGGUUGCAGAGGAGGCAGGCUUCGGUGGCGCGAUAGCGCCAACGUCCUCAACCUCCAAUGCAUCACACCACAUGAUGAUGCCUGAAGAGCCUUGGUUUUUUG, the “polymerase ribozyme fitness (log ratio)” value was -5.84. As for GACCAAUCUGCCCUCAGAGCUCGAGAACAUCUUCGGUUGCAGAGGAGGCAGGCUUCGGUGGCGCGAUAGCGACAACGUCCUCAACCUCCAAUGCAUCACACCACAUGAUGAUGCCUGAAGAGGCUUGGUUUUUUG, the “polymerase ribozyme fitness (log ratio)” value is -5.43. As to GACCAAUCUGCCCUCAGAGCUCGAGAACAUCUUCGGUUGCAGAGGAGUCAGGCUUCUGUGGCGCGAUAGCGCCAACGUCCUCAACCUCCAAUGCAUCCCACCACAUGAUGAUGCCUGAAGAGCCUUGGCUUUUUG, the “polymerase ribozyme fitness (log ratio)” value is -1.96.
